Data as given in the DeepSol protein solubility set.

Assay: soluble on expression in E. coli; label from the status in PepcDB or PDB records

Sequence	soluble on expression in E. coli
MGSDKIHHHHHHMTTESIAVLVIDDDPAILQNIVCYLEDSDFICFGAADGAAGIETFERERPDAVIVDLNMPGMNGRDVIARINAQSPTTPVIVVSGTGVIDEAVESMRVGAWDFLSKPVRRMEELENAVRAGLRRARTMRESNEYKETLERMVKRRTRELQLANDRTEAILLATVQSLSTVINLKDAYTGTHQQRVALIAPAIAEELGMEQRAVEAVRLAALLHDVGKMGLPSEFLTKPSRLDANEMQFIRQHPQLGYDILKDIPFELPIPEMVLQHHERLDGSGYPRGLAGDDILPEARILAVADTVEAICSHRPWRPAHPFSHALHELTAGKNTLYCPDAVNSCIDLITRGDPRLTTFTATIKGLPS	not soluble
MNAATLVDTHAVDTALQEAFEAAPEGFALFDAEDRCVIWNARYGELWSKWGVTLAVGATFESLLLAGLAAGRFPEANGDRAAWLAHQLGRRKLDRIEEIREEFGEYLRFESRRTPAGGLITTCANLTNLRRREAQALAARSFLDTIVENTPAMLFVKDGDTGAFLLVNRAAENQLGVPRAELLGKSDYDFFPKEQADAFAADDRRVIASGKLVTIDEEPLDTPHNGRRWLQTRKIAIPGEDGRRHLLVICEDITERKAGAAALAEALQKAEAGSVAKSEFLANMSHEIRTPLNGVIGMAEVLSRTALDDAQREMMEVILNSGRALNLLLSDILDLSKIEAGGLELSRDPLDLREAITAAVAVFKAVAESKGLVFRLTFADDFHDHVLGDALRVRQIVANLTSNAVKFTTAGSVIIEARTLVAEDGRIDLTVSVQDTGEGFDEDSADRLFERFQQADGSVTRKVGGTGLGLPIARRLARLMDGEISCVAHPGEGATFVFEALFLADGQRTPAASADPAGELALDRRLRVLLAEDHPTNQKVIGLMLADAADVTVAEDGQAAVEAFEKHAYDVVLMDTQMPVMDGLAAIAEIRRREREAQARRTPIISLTANAMPHQVRACLEAGADLHLAKPVSIQGLFATLGAALETRPGGEGLEHHHHHH	not soluble
MSQQKICFIGAGNMTRSIISGLIRSGYPASQVQATNPSQGKLDALATDFGVRVSQDNVSAAQDADVIILSVKPQLMEQVCQALQGIDMSNKLLITIAAGIKASRYSEYLAQPITLIRTMPNTPMQIGVGMTGLYAPQSLSDAQKAIAERLMSSGGEIVWVNEESDINQVIALAGSSPAYFFLLMESMIDAGKQMGMDEAKARSLVQQAALGAAMMAKQNPELTLGNLRENVTSKGGTTAQAIATFEAADLRGVVKKAMENCINRAEEMAKTF	soluble
NHPTRPCTCAPGQVEKYLSRISGPLLDRIDIQVEITPVPFEKISDSRPAESSEKIRQRVVAAREIQSKRFADYSGVHCNAQMDDKLMNRYALPDEKGLQRLRTAMERFDLSARAYGRILKVARTIADLAGSEDVGGEHIAEAIGYRNLDRENWGKA	not soluble
MLEMLEYNHYQVQTHLENPTKYHIQQAQRQQVKQYLSTTLANKHANQVLSLPCPNQPGDHVMPPVPGSSAPNSPMAMLTLNSNCEKEGFYKFEEQNRAESECPGMNTHSRASCMQMDDVIDDIISLESSYNEEILGLMDPALQMANTLPVSGNLIDLYGNQGLPPPGLTISNSCPANLPNIKRELTESEARALAKERQKKDNHNLIERRRRFNINDRIKELGTLIPKSNDPDMRWNKGTILKASVDYIRKLQREQQRAKELENRQKKLEHANRHLLLRIQELEMQARAHGLSLIPSTGLCSPDLVNRIIKQEPVLENCSQDLLQHHADLTCTTTLDLTDGTITFNNNLGTGTEANQAYSVPTKMGSKLEDILMDDTLSPVGVTDPLLSSVSPGASKTSSRRSSMSMEETEHTC	soluble
MNEINESYDTDSVREFTVSDADAGPYALAEGPDGALWFTLVHRGAVARRDPDDGRVTVHPVGDGPTVIAPGPDGALWFTEYRAHRIGRITPEGHYASFAPLTPEGGPFGITAGPDGAMWFTLSSADRVGRVTMDGEVTEHPAPGAFPSALTAGPDGALWCTLNQGNAIGRLTPDGHGTAYPLPTPGAAPVGIAAGPDGALWFTEIGAGRIGRITVTGDLTEYPLSDPAARPHAVTAGPNGALWFTEWGSGRVGRITVDGRVTSYPLSRTDCEPHGIAVHDGALWCALETGSLARIQVPA	soluble
MSTIPSEIINWTILNEIISMDDDDSDFSKGLIIQFIDQAQTTFAQMQRQLDGEKNLTELDNLGHFLKGSSAALGLQRIAWVCERIQNLGRKMEHFFPNKTELVNTLSDKSIINGINIDEDDEEIKIQVDDKDENSIYLILIAKALNQSRLEFKLARIELSKYYNTNLH	soluble
MSLKQGLQLRLSQQLAMTPQLQQAIRLLQLSTLELQQELQQALESNPLLEQIDTHEEIDTRETQDSETLDTADALEQKEMPEELPLDASWDTIYTAGTPSGTSGDYIDDELPVYQGETTQTLQDYLMWQVELTPFSDTDRAIATSIVDAVDETGYLTVPLEDILESIGDEEIDIDEVEAVLKRIQRFDPVGVAAKDLRDCLLIQLSQFDKTTPWLEEARLIISDHLDLLANHDFRTLMRVTRLKEDVLKEAVNLIQSLDPRPGQSIQTGEPEYVIPDVLVRKHNGHWTVELNSDSIPRLQINQHYASMCNNARNDGDSQFIRSNLQDAKWLIKSLESRNDTLLRVSRCIVEQQQAFFEQGEEYMKPMVLADIAQAVEMHESTISRVTTQKYLHSPRGIFELKYFFSSHVNTEGGGEASSTAIRALVKKLIAAENPAKPLSDSKLTSLLSEQGIMVARRTVAKYRESLSIPPSNQRKQLVEGHHHHHH	soluble
MGSDKIHHHHHHMQNLHIFGEQKKTDWVIFENLEKVESKTLTEEGSAIRLNSGKYRKLKAISSVDPDVLYSTCKQFLPLNELEVLNKWEPSWGKVREDILNSKVELWNQCMHESACQYAPEVVSTKAYWKSVQQHIWFCTSSSELKEDIRTCFMLDFYITVQKEGRTKQSNLTRSWLSPINVQEEDLQELVLYTANAAMEKLDARPFPSGSYALILGPLAAPGIFHEVVGHGLEADIASIPQSAFHQRLGAMVGCEKVTIIDDPTKEGLPGSYSLDDEGTIAQQTTLIEKGRVVNYLSHLHTGHPTNGHGRVINYQHLPLVRMSNTFLLPGTDDPEEMVSDTEVGLYVKKAINGDVNMITGEFEIHVAEGYLIEKGQITSPILPTTLKGDGQKLLQSIDRVGNDFAIHSEVRGGCGKLGQSPLPVSAGSPTVRVLDWYVKGADR	not soluble
MGSDKIHHHHHHMRDSVFKLSYFLSANEKFHIARVNITSSQDLSLHSHDYAEILWVEKGTGIHHVNGHQFRLSPGDLIMVRPKDRHTFSSSGKGIVIVNVAFPVETLDYFRQRYFEWSNLYFWTTGMFPFQMRLSRDIVKRLSSRAEEAMKYGRSNIQLDSLLLFIFRQITANEKVEDSSEIPVWLFNAIQKFNSPEFFIQGIAGFVTLCDRNIDYVNRIVKLHFHKSLTDLINEFKMQYATTQLSITSMPIKEICTNCGFRNLGHFYKIFRSVYNQTPYEYRRINQLIV	not soluble
MSLSEQHIDPTRLRMDELVVALTDRETELAAAEGRIRELEREVSELRRSLNSPSQEAELERLRLLAGTTAVTGPGVVVTLSETPEAVTAKNRVADEDIWRVVNELYTAGAEAIAVGGVRLTSVSGIRNVGERILVGETMIASPVEIHAIGDPAVLDASLKLRGGVIDLLARWGIKVTVVKSDSLTLPPLKTQPAFRYAKPAESAGSEGHHHHHH	soluble
MKQSIVSLAQVIRSKNAGPYELVLDILFKTKENYERVKSSGQLTPELIARLYHVEPDFIHRIVWFDPSNAVKIVMPRDIISGNVGDNDVYGAQQHAPLLNMSFDL	soluble
AHHHHHHGSEELIREVILKNLTLNSAGGIGLEELDDGATIPLGDKHLVFTIDGHTVKPIFFPGGDIGRLAVSGTVNDLAVMGAQPLAIASSLIIEEGFEVSELEKILKSMDETAKEVPVPIVTGDTKVVEDRIGIFVITAGVGVAERPISDAGAKVGDVVLVSGTIGDHGIALMSHREGISFETELKSDVAPIWDVVKAVADAIGWENIHAMKDPTRGGLSNALNEMARKANVGILVREEAIPIRPEVKAASEMLGISPYEVANEGKVVMIVAKEYAEEALEAMKKTEKGRDAAIIGEVIGEYRGKVILETGIGGRRFLEPPLGDPVPRVC	soluble
MGSDKIHHHHHHMERAAFGKLVQALRREHRDEKGRVWTQEVLAERTQLPKRTIERIENGSLAHLDADILLRLADALELTIGERREFFFAATGIIEQKSATYKRSPEESLQYLIDMIRNMNVPAFVTDQYVNIIAANMITIRFFNIPMELIETAPLLPHGYNLMRVVFGTEYDFRRVVGTMWDEVARHNMQLFRAISLRVRADGYFVELLDNLMQYREFKRFWERAHLETEDTSAENFWYQYTHPVYGLLSYVSSRSQIPTSMGLLSMHTYIPLSPATTDLFAKLSTVANQDVIRLAPWPRSNG	not soluble
MSLEEPFEIPPVEDTESVAKVDVRVDGIRDDRLSENVRIYLEAMDKNEADGSERHQYLLRENISKALRVFGYYNSQVYFDLQPRSGKKDLLIASVNVGEPVRIDSTDIEISGEAAEDEEFRKLDKNVPAKGAVLEHEIYDDYKSSLEKLARQRGYFDADFPVHELQVMPSTNQGWWHLVFNSGQRYHYGDISFHGSQIREDYLRNILKIQSGDPYLINDVSGMTSDYSSTNWFQSVLVKPTLHEDSKLVDLAVLLRPRKKNSMELGIGYGSDSGPHTQIGWTRPWINSRGHSVRSNLYISSPKQNFEATYKMPLLKNPLNYYYEFSTGFEHEDDTKTDTQSTAATVAALRFWNHPTGWQYSAGLRARYDNFTQADVDEKTLLIYPTATVSRSRISGGTFADRADTISVTVDLGRKMWASDVNFFRIRANAGWIKTFATNHRFLTRGDIGYLHTDEFNRIPPALRFFAGGDRSVRGYGYKKIAPKDSRNGKLVGGSRLATGTLEYQYQVVQDWWAATFFDAGFAANRFSSDELRYGAGVGVRWASPVGPIKFDIATPVRDKDDSKNIQFYIGLGTEEGHHHHHH	not soluble
PSEIFYQAKVREQKERHARYHDTTYNLEPDIKSTPGGLRDIHTLSWVARRHFGATSLYEMSRFGFLTDAEYRELVECQDFLWRVRFALHIELKRYDNRLTFAHQVQVARHLGYFGEGNRGIEMMMKEFFRTLRRVAELNKMLLKIFDKAILNNGEEAEAVIIDDDFQRRGNMIEARKPALFQARPETILDMFLHMASDSTIESVAPATMRQLRTARRRLN	not soluble
MAQQHNDWADITSLDTFPKVLQHNAKHWPEQVAMREKEFGIWREFTWQDYENRVKWMALALQDLGIGEQDVVGLLGDNRPEWVWGELAAHAIKGYSLGIYQDSMHEEVAYLINYAKAKVVIAEDEEQCDKLLELGDEIPSVEYIIYCDPRGMRKYDDPRLIDVEQVYKKGQLIDKADPDKYLNMVAATKGSDLSILCTTSGTTSKPKLAQLHSGTFLDHCAAYLRADPRSPGDNYVSVLPLPWIMEQVYVVGQALISRQIVNFVEEQETMMSDLREIGPNFVLLAPRVWENIVADVSARMMDSTPFKQKMYKLGMSLANKALDQGKRSKLAEWILLRA	not soluble
MKRILLSLLAMATLVGCGSKDDNNPTPPQRPDFTKEQQNYLPTKKVKHVTATYVEADYENGSYPSVQYKDFLNPELNQGQKFTVKTMEYFYEYDNAGRITKVTFKREGDSDIVSTLTYSNISVTITSPPPYDGIREPRSIEYGLNSSGNILSLGVYNEKQQLKNSMSAGTFTWENDNLTKISRKVTRNGVVKERGVKFSYNSATNKNKFYLLDHTGDDIRSYQEYFALSIAIIKGAAPKNLPIEATPLEENDSYSSRFERPVSFSYTFDGDEFVKTITEKENKFVPGSLYSYVPNNGNNEIGTYWNELQTLIANIENKTVTNKSYKLISDDGSTRIFEITVPVKVEKDSNGKTINLNVNKVCKFTVSYNNTSATDIRMEATYYADIITNYELNY	not soluble
